{
  "source": "patent US20240165165A1",
  "about": "“PHARMACEUTICAL COMPOSITIONS AND THEIR METHODS OF USE” (The Trustees of Indiana University, priority 2021, published 2024)",
  "format_in_all_cases": "cell-based, mouse",
  "key": {"[1]": {"system": "RANKL-stimulated RAW264.7 pre-osteoclasts", "test": "Western blot of NFATc1 and cathepsin K", "experimental": "Western blot analysis and mass spectrometry. Western blot analysis was conducted using known procedures. Antibodies were used against ANXA1, β-catenin, caspase 3, Lrp5, Lrp6, Runx2, Sclerostin, Snail, TGFβ, NFATc1, cathepsin K (Cell Signaling, Danvers, MA, USA), DMP1, ANXA6, CXCL5 (Abcam, Cambridge, MA, USA), M-CSF, MMP9, OPN, TPM4 (Santa Cruz, Dallas, TX, USA), WISP1 (R&D systems, Minneapolis, MN, USA), β-actin (Sigma, Saint Louis, MO, USA), LIMA1, Trail (Novus, Centennial, CO, USA), p53 and CXCL1 (Invitrogen, Carlsbad, California, USA), and DSP (ProteinTech, Rosemont, IL, USA). The expression levels of Sclerostin and Lrp5 in CM were detected by ELISA (My BioSource, San Diego, CA, USA). Proteins from A5 osteocyte CM, Y4 osteocyte CM, and osteoclast control CM (RAW264.7 cells) were analyzed by the HF Hybrid Quadrupole Orbitrap mass spectrometry. Among 549 identified proteins, 49 proteins presented higher expression levels in A5 CM than Y4 CM and control CM. […]\nWestern blot analysis and protein array analysis. […] A proteome profiler mouse XL cytokine array kit (R&D Systems, Minneapolis, MN, USA) was also employed, and the expression of 111 cytokines and chemokines in MSC-derived CM was determined.\nWestern blot analysis. […] The protein concentration was determined using a BCA Protein Assay kit (Thermo-Fisher). […]"}, "EO771 cells": {"system": "EO771 cells", "test": "Western blot of proteins in treated tumor cells", "experimental": "Western blot analysis and mass spectrometry. Western blot analysis was conducted using known procedures. Antibodies were used against ANXA1, β-catenin, caspase 3, Lrp5, Lrp6, Runx2, Sclerostin, Snail, TGFβ, NFATc1, cathepsin K (Cell Signaling, Danvers, MA, USA), DMP1, ANXA6, CXCL5 (Abcam, Cambridge, MA, USA), M-CSF, MMP9, OPN, TPM4 (Santa Cruz, Dallas, TX, USA), WISP1 (R&D systems, Minneapolis, MN, USA), β-actin (Sigma, Saint Louis, MO, USA), LIMA1, Trail (Novus, Centennial, CO, USA), p53 and CXCL1 (Invitrogen, Carlsbad, California, USA), and DSP (ProteinTech, Rosemont, IL, USA). The expression levels of Sclerostin and Lrp5 in CM were detected by ELISA (My BioSource, San Diego, CA, USA). Proteins from A5 osteocyte CM, Y4 osteocyte CM, and osteoclast control CM (RAW264.7 cells) were analyzed by the HF Hybrid Quadrupole Orbitrap mass spectrometry. Among 549 identified proteins, 49 proteins presented higher expression levels in A5 CM than Y4 CM and control CM. Among them, 11 proteins (p53; SPARC=osteonectin; TPM1, TPM4=tropomyosin 1 & 4; ANXA1, ANXA6=annexin A1 & A6; FMOD=fibromodulin; OGN=osteoglycin; DSP=desmoplakin; AHNAK=desmoyokin; and LIMA1=[…] domain actin-binding protein 1) were identified as potential tumor suppressors.\n(§1) Western blot analysis and protein array analysis. Western blot analysis was conducted using the procedure previously described. Antibodies against Lrp5, Runx2, Snail, TGFβ, sclerostin, Calr, p-eIF2α, eIF2α (Cell Signaling, Danvers, MA, USA), LIF, Trail (Novus Biologicals, Centennial, CO, USA), MMP9, NFATc1, cathepsin K (Santa Cruz Biotechnology, Dallas, TX, USA), p53, CXCL2, Ppib (Invitrogen, Carlsbad, CA, USA), Hsp90ab1 (Abcam, Cambridge, UK), and β-actin (Sigma, Saint Louis, MO, USA) were used. A proteome profiler mouse XL cytokine array kit (R&D Systems, Minneapolis, MN, USA) was also employed, and the expression of 111 cytokines and chemokines in MSC-derived CM was determined.\nSpheroid assay, plasmid transfection, and Western blot analysis. […]"}, "TRAMP cells": {"system": "TRAMP cells", "test": "Western blot of proteins in treated tumor cells", "experimental": "as §1\nWestern blot analysis. Cultured cells were lysed in a radio-immunoprecipitation assay buffer with protease inhibitors (Santa Cruz Biotechnology, Santa Cruz, CA, USA) and phosphatase inhibitors (Calbiochem, Billerica, MA, USA). The protein concentration was determined using a BCA Protein Assay kit (Thermo-Fisher). Proteins were fractionated by 10-15% SDS gels and electro-transferred to polyvinylidene difluoride transfer membranes (Millipore, Billerica, MA, USA). […] The level of proteins was determined using a SUPERSIGNAL™ west femto maximum sensitivity substrate (Thermo Scientific, Waltham, MA, USA), and a luminescent image analyzer (LAS-3000, Fuji Film, Tokyo, Japan) was used to quantify signal intensities. […]"}},
  "data": [
    {"molecule": "Trail: recombinant TRAIL proteins, apoptosis-inducing factor (protein, UniProt P50592 1-291, looked up) Tumor necrosis factor ligand …: MPSSGALKDLSFSQHFRMMVICIVLLQVLLQAVSVAVTYMYFTNEMKQLQDNYSKIGLACFSKTDEDFWDSTDGEILNRPCLQVKRQLYQLIEEVTLRTFQDTISTVPEKQLSTPPLPRGGRPQKVAAHITGITRRSNSALIPISKDGKTLGQKIESWESSRKGHSFLNHVLFRNGELVIEQEGLYYIYSQTYFRFQEAEDASKMVSKDKVRTKQLVQYIYKYTSYPDPIVLMKSARNSCWSRDAEYGLYSIYQGGLFELKKNDRIFVSVTNEHLMDLDQEASFFGAFLIN", "values": [
      {"measurement": "NFATc1 and cathepsin K", "setting": "[1]", "result": "decreased"},
      {"measurement": "tumor-promoting/tumorigenic proteins (Lrp5, MMP9, Runx2, TGFβ, Snail, IL1β etc.) in EO771 cells", "setting": "EO771 cells", "result": "reduced"},
      {"measurement": "cleaved caspase 3 in TRAMP cells", "setting": "TRAMP cells", "result": "increase"},
      {"measurement": "tumor-promoting genes (Lrp5, Runx2, MMP9, Snail, TGFβ) in TRAMP cells", "setting": "TRAMP cells; Western blot", "result": "downregulated"}
    ]}
  ]
}
